# From the DeepSol protein solubility set
# Assay: soluble on expression in E. coli; label from the status in PepcDB or PDB records
row,Sequence,soluble on expression in E. coli
1,MSLGEEFHRNRTRFTKDPRVKSQDLLILALMDNQLRPTLHYQAQNPHRRVLVTGATGYIGGRLITELLAAGFQVRATSRKKTSLQRFDWYEDVEAVEADLTDATELDTLFKDVDVVYYLVHSMGGKNVDFEEQEQRTAENVIQAADQAGIKQIVYLSGLHPRNRKIEELSKHMRSREKVAQILLAGQTPALILRAATIIGSGSASFEIIRHLTERLPRMIAPQWITNQIEPLAIRDVLHYLISAADLKDPVNRSCDIGCGKSYEFADLLRIYADVRGLKRHVNSVPLNLPMDKLSGLWISLVTPVPFQLSFPLAQSMAEDAVTEEHSIKDIISDPPDGFIEYREAVELALAAEFDRGVPTSWDRSWTVQQPWAGQPTDPEWAGKAVYEDVRTEDTDLRAAQVWPIIEGLGGVNGWYSAPLLWRLRGIADRLIGGPGLGGRRDPRHLKLGDRIDWWRVTEIDPPHRLVLTAEMKVDGGAWLILEVADKENGGCTYTQRAIFEPKGEGHHHHHH,not soluble
2,SSGIHVALVTGGNKGIGLAIVRDLCRLFSGDVVLTARDVTRGQAAVQQLQAEGLSPRFHQLDIDDLQSIRALRDFLRKEYGGLDVLVNNAGIAFKVADPTPFHIQAEVTMKTNFFGTRDVCTELLPLIKPQGRVVNVSSIMSVRALKSCSPELQQKFRSETITEEELVGLMNKFVEDTKKGVHQKEGWPSSAYGVTKIGVTVLSRIHARKLSEQRKGDKILLNACCPGWVRTDMAGPKATKSPEEGAETPVYLALLPPDAEGPHGQFVSEKRVEQW,soluble
3,MKHIHIIGIGGTFMGGLAAIAKEAGFEVSGCDAKMYPPMSTQLEALGIDVYEGFDAAQLDEFKADVYVIGNVAKRGMDVVEAILNLGLPYISGPQWLSENVLHHHWVLGVAGTHGKTTTASMLAWVLEYAGLAPGFLIGGVPENFGVSARLPQTPRQDPNSQSPFFVIEADEYDTAFFDKRSKFVHYRPRTAVLNNLEFDHADIFADLGAIQTQFHYLVRTVPSEGLIVCNGRQQSLQDTLDKGCWTPVEKFGTEHGWQAGEANADGSFDVLLDGKTAGRVKWDLMGRHNRMNALAVIAAARHVGVDIQTACEALGAFKNVKRRMEIKGTANGITVYDDFAHHPTAIETTIQGLRQRVGGARILAVLEPRSNTMKLGTMKSALPVSLKEADQVFCYAGGVDWDVAEALAPLGGRLNVGKDFDAFVAEIVKNAEVGDHILVMSNGGFGGIHGKLLEALR,soluble
4,MRRNRFLAPLLVAASLLATAPAHGQPAPAAVLASDEAQRIALDAYVYVYPLVVMDLSRRQDTGGKGPGHAPANTFAHERRLPQADFRRLPRPNFDMLRSSAWLDLSTGPVVISTPETHGRLYTLSVLDMWTDIFAVLGKRTTGTARGNHAIVPPGWTGVLPRGMHRIDAPTAQVQARLYVQTGGSSEYPGVHAVQDGFILTPLAEWNQQAQSVRLRSDPDLDALTPAQQQVEGMNAEDYFGYAAELLRKHAPHATDQPMLARLRRLGIAPGQQLAFARLPTTVQQALRHAVRNGPQALRDSLPATGSLANGWQADADGAGVYGNAYLRRAVTTQARLGASLPEDVTAMLLLADAAGRPLEGGQRYVLRFEADQLPPAGALWSLNAYDAQGYPVGNGFNRYALGDRDPVRYNPDGSLELYLQRDPPGPDDQANWLPTGEGAPGVILRIYLPQASVLAGRWVPPAARRVEAADDAAALEHHHHHH,not soluble
5,MGSDKIHHHHHHMVMMSKQLTAQAPVDPIVLGKMGSSYGIRGWLRVFSSTEDAESIFDYQPWFIQKAGQWQQVQLESWKHHNQDMIIKLKGVDDRDAANLLTNCEIVVDSSQLPQLEEGDYYWKDLMGCQVVTTEGYDLGKVVDMMETGSNDVLVIKANLKDAFGIKERLVPFLDGQVIKKVDLTTRSIEVDWDPGF,not soluble
6,GPGSMLRRQCVPLRVVAAGLRLNSSSSGPSKTNDGGIPNATGMDNAPGLYAEKPSSTYCEEKYPNKVEEVGSLKPPTYDVPHGRSDNIKTPEFNTSLGKFDQAPYFTGGPPAMRYHGYKRDPAVEGVDYRDVLPKTPIEDHHPHMEFLSVTGRREGSTFLLANAGVNWELKAAAMSLYRTILKSLPMIKHYYWLLVPLPAMKDKIRLRFLQNQHTKDPDAIRHLLHNGWMEFQESIMFRRPR,not soluble
7,GPGSMLTRSLVCRASLQSRRRWEQRIVSVLSENKEEGVDAVAKRFQRVYKERRYTPVEEAFPPLAAAAAAPGLRSSAAKESVESVQQPANPLVLRVAFLGPQNAGKTSLVNSMALSNVGAVSNRYGSTKDWTKAVATVHETQLLLLDTPGIVPRDTQRVRRKFASGTAKAYDALFVSDLVVLALPVGVGFVEKEHKVVATEVVRRAAGRELPVVIAMTMMDKVQTPWHRELYFAMRTDLESLGLPTAATHEVSVKGGSGLVELKDCLCQYAKPGAWEHYRREATDLNPPQRVAELLRQTFMELLPHEIPHCMRHRVLGWTRKESGTTEVVVEAFFDRPAYMFTFYGKLEAICLRAQQVTERELAPQRFRFVFQAFIAPGGLSNS,not soluble
8,MPAIKSSADLRNNYNEISTFCHNYPEPVFITKNGKGDLAVMSIEAYEGLTSRFELYSQIKEGMDDIATGNTRPFSEAMADIRSRRSRLEHHHHHH,not soluble
9,MRNFKKSDKLNNVSYDVRGPVLEEAERMQEEGIRILKLNTGNPAPFGFDAPNEIVRDMIVNVRDSEGYSDSKGIFSARKAIEQYCQLKKFPNVTINDIYTGNGVSELITMCMQGLLNNGDEVLVPMPDYPLWTASVSLAGGTPVHYICDEQAEWYPDIDDIKSKITSNTKAIVIINPNNPTGALYPKELLLEIVEVARQNDLIIYSDEIYDRLVMDGLVHVPIATLAPDLFVVTLNGLSKSHRVAGFRCGWMVLSGDKSRVKGYIEGLNMLASMRLCSNVLSQQIIQTALGGYQSVDGLLLPGGRIYEQREFIYNAINDIPGLSAVKPKAAFYIFPKIDTAKFDIYDDEKFVLDFLHKHHILLVHGGGFNWQQPDHFRIVYLPKMEDLKTTADKMREFLSTYKQK,not soluble
10,MLSMLSKISFTRPQAQELLRRLQAPRHLLQVVLGPRQVGKTTLALQVAQTCGLPYHYASADEPTLKEAPWLETQWTLARRLAQAGEALLVLDEAQKVLGWSETLKRLWDEDTLRGLPLKVVLLGSSPLLLQKGLSESLAGRFEVLHLPHWSFYEMERAFGYTLPEYLYFGGYPGAAPLREEPERFARYIKDALLETTLGRDILLHTRVEKPALLRRVLELGLLYSGQVLSYTKMLGQLQDAGNTVTLAYYLELLEGAGLLGALQKYAAEPIRRRASSPKLLALNTGLITAVLGLSPEEVWEDAALMGRLVETAVGAHLLAHAHQGGFEVYYWRERDQEVDFVLQKGKRLLALEVKSAPSKRTQGLEAFTRTFGAKGLLVGPEGVPLEAFLRDNPLNFL,soluble
11,MKEDWPEPVKEYNTGQVLFDRLELTRTNEEENLAVWDMIAWYGGDYHRAVFKSEGENVQDDGEPTDLERAELLYGYLVSPFWSFQAGIGTRGTLSSDASMENYAVVSFMGLAPYWFEMDNSLMVNEEGDVQFVSETEYEWQLTQTSYLQPRIELTANLTDSDKYERQSGLSNLRVGLRYRHEISREFAPYIGVYWNGALGNTADEMKRMGKDTTETGVVLGARVWFLEHHHHHH,not soluble
12,MSLTANRDKFRPVYHHTPLYGWMNDANGLVYKDGEYHLYFQYNPYGSVWGNMHWGHSVSKDLVHWEHLDPAIARDTLGHIFSGSAIVDKHNSAGYGENTIVAFYTSHRNIPSGQSQVQSMAYSTDNGRTYTKYEQNPVLTPFDGLQNFRDPKVFWYEPEQKWIMIVSADKNMRFYSSANLKQWEYMSEFGEGFGPQPNQFECPDFIQLPVDGDRTRMKWVMIVNINPGFVYGGSGTMYFTGDFDGHQFVCDTKPEVVKWLDWGKDHYATVCFSNTGDRVIAVPWMSNWQYANYTPIQQFRSANALPRELSLYTGEDKQLYLSAAPVKETEHLRKDSKKLDDFTVNGEKRLETLFENNDGAFELELQLVSAGKEAGFELLNSLGEKVKIYLDASEGRVVMDRAESGIVDFGKKVKPHDLDTEESYARYKEVTVNYKNDFALGTWAPINTAKAHKIQVFVDNGSVELFVDGGRVAMTNLVFPNEPYNSLRFYSKGGEMKISNFTIYKLGLEGHHHHHH,soluble
13,MSMDISDFYQTFFDEADELLADMEQHLLDLVPESPDAEQLNAIFRAAHSIKGGAGTFGFTILQETTHLMENLLDEARRGEMQLNTDIINLFLETKDIMQEQLDAYKNSEEPDAASFEYICNALRQLALEAKGETTPAVRSHHHHHH,soluble
